This passage reports percent of parent results from PMC6375917 (2019).

B1: His-tagged but otherwise wild type Tim50 [yeast] / Tim23 [yeast (endogenous in yeast mitochondria)] (parent complex)
chain 1: QKETKDDKPKSILTDDMLFKAGVDVDEKGQGKNEETSGEGGEDKNEPSSKSEKSRRKRQTSTDIKREKYANWFYIFSLSALTGTAIYMARDWEPQESEELKKDIDNGYTLSLMYKRFKARFNSMFTYFQEPPFPDLLPPPPPPPYQRPLTLVITLEDFLVHSEWSQKHGWRTAKRPGADYFLGYLSQYYEIVLFSSNYMMYSDKIAEKLDPIHAFVSYNLFKEHCVYKDGVHIKDLSKLNRDLSKVIIIDTDPNSYKLQPENAIPMEPWNGEADDKLVRLIPFLEYLATQQTKDVRPILNSFEDKKNLAEEFDHRVKKLKDKFYGDHKSGGNWAMTALGLGNSLGGSTKFPLDLIHEEGQKNYLMFMKMIEEEKEKIRIQQEQMGGQTFTLKDYVEGNLPSPEEQMKIQLEKQKEVDALFEEEKKKKKIAESK
chain 2: MSWLFGDKTPTDDANAAVGGQDTTKPKELSLKQSLGFEPNINNIISGPGGMHVDTARLHPLAGLDKGVEYLDLEEEQLSSLEGSQGLIPSRGWTDDLCYGTGAVYLLGLGIGGFSGMMQGLQNIPPNSPGKLQLNTVLNHITKRGPFLGNNAGILALSYNIINSTIDALRGKHDTAGSIGAGALTGALFKSSKGLKPMGYSSAMVAAACAVWCSVKKRLLEK

In this assay the parent is B1. Description: pull-down (Ni-NTA agarose beads), immunoblot quantification; T, 10% of total material. B, 100% of bound material.; parent: 100; read off a plot. In general terms: Immunoblotting shows a protein as a band on a membrane.
For the variant chain 1 QKETKDDKPKSILTDDMLFKAGVDVDEKGQGKNEETSGEGGEDKNEPSSKSEKSRRKRQTSTDIKREKYANWFYIFSLSALTGTAIYMARDWEPQESEELKKDIDNGYTLSLMYKRFKARFNSMFTYFQEPPFPDLLPPPPPPPYQRPLTLVITLEDFLVHSEWSQKHGWRTAKRPGADYFLGYLSQYYEIVLFSSNYMMYSDKIAEKLDPIHAFVSYNLFKEHCVYKDGVHIKDLSKLNRDLSKVIIIDTDPNSYKLQPENAIPMEPWNGEADDKLVRLIPFLEYLATQQTKDVSPILNSFEDKKNLAEEFDHRVKKLKDKFYGDHKSGGNWAMTALGLGNSLGGSTKFPLDLIHEEGQKNYLMFMKMIEEEKEKIRIQQEQMGGQTFTLKDYVEGNLPSPEEQMKIQLEKQKEVDALFEEEKKKKKIAESK [chain 1 R296S], the percent of parent is ~115%.
As to chain 1 QKETKDDKPKSILTDDMLFKAGVDVDEKGQGKNEETSGEGGEDKNEPSSKSEKSRRKRQTSTDIKREKYANWFYIFSLSALTGTAIYMARDWEPQESEELKKDIDNGYTLSLMYKRFKARFNSMFTYFQEPPFPDLLPPPPPPPYQRPLTLVITLEDFLVHSEWSQKHGWRTAKRPGADYFLGYLSQYYEIVLFSSNYMMYSDKIAEKLDPIHAFVSYNLFKEHCVYKDGVHIKVLSKLNRDLSKVIIIDTDPNSYKLQPENAIPMEPWNGEADDKLVRLIPFLEYLATQQTKDVRPILNSFEDKKNLAEEFDHRVKKLKDKFYGDHKSGGNWAMTALGLGNSLGGSTKFPLDLIHEEGQKNYLMFMKMIEEEKEKIRIQQEQMGGQTFTLKDYVEGNLPSPEEQMKIQLEKQKEVDALFEEEKKKKKIAESK [chain 1 D235V], the percent of parent is ~37%.
Next, chain 1 QKETKDDKPKSILTDDMLFKAGVDVDEKGQGKNEETSGEGGEDKNEPSSKSEKSRRKRQTSTDIKREKYANWFYIFSLSALTGTAIYMARDWEPQESEELKKDIDNGYTLSLMYKRFKARFNSMFTYFQEPPFPDLLPPPPPPPYQRPLTLVITLEDFLVHSEWSQKHGWRTAKRPGADYFLGYLSQYYEIVLFSSNYMMYSDKIAEKLDPIHAFVSYNLFKEHCVYKDGVHIKVLSKLNRDLSKVIIIDTDPNSYKLQPENAIPMEPWNGEADDKLVRLIPFLEYLATQQTKDVSPILNSFEDKKNLAEEFDHRVKKLKDKFYGDHKSGGNWAMTALGLGNSLGGSTKFPLDLIHEEGQKNYLMFMKMIEEEKEKIRIQQEQMGGQTFTLKDYVEGNLPSPEEQMKIQLEKQKEVDALFEEEKKKKKIAESK [chain 1 D235V, chain 1 R296S]: ~12%.
